From the nanobody polyreactivity screen of Harvey et al. (2022)

assay: yeast display, Sf9 membrane polyspecificity reagent, FACS + sequencing; frameworks hold sequencing errors
Outline: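 Galactose induction of a Saccharomyces cerevisiae BJ5465 synthetic nanobody display library ran 36–48 hours. The cells were then stained for 1 hour at 4 °C with 10% biotinylated, detergent-solubilized Sf9 membrane reagent, pulled down on streptavidin microbeads and FACS-sorted into low and high (top ~1%) gates on expression and reagent-binding fluorescence. Labels for polyreactivity follow the gate of origin.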

Sequence | polyreactivity (PSR sort gate)
QVQLGESGGGLVQAGGSLRLSCAASGLTFYLYAMGWYRQAPGKERELVAAITTSGGSTYYADSVKGRFTISRDTAKNTVYLQMNSLKPEDTAVYYCATQGALRGYGYWGQGTQVTVSS | high polyreactivity
QVQLVESGGGLVQAGGSLRLSCAASGRTFWFYDMGWYRQAPGKEREFVASITSSGGSTYYADSVKGRFTISRDIAKNTVYLQMNSLKPEDTAVYYCAASFYWTTRYSREYDYWGQGTQVTVSS | high polyreactivity
QVQLVESGGGLVEAGGSLRLSGAASGSIFRYYSMGWYRQAPGKERELVAAITYSGGTTYYADSVKGRFTISRDNAKNTVYLQMNSLKPEDTAVYYCAATFQANYFSGYYTVYLSDYRGQGTQVTVSS | low polyreactivity
QFQLLESGGGLVQAAGSLRLSCAASGGIFRNYAMGWYRKAPGKERELVAAITSSGTSTYYADSVNGRFTISRDNAKNTVYLQMNSLKPEDTAVYYFAADVTARYDYWGQGTQVTVSS | high polyreactivity
QVQLVESGGGLVQAGGSLRLSCAASGRIFWNYAMGGYRQAPGKERELVASINWSGGSTYYADSVKGRFTISRDNAKNTVYLQMNSLKPEDTAVYYCNKDGRVYLDHDYWGQGTQVTVSS | low polyreactivity
QVQLVESGGGLVQEGGSLRLSCACSARTITGYAIGWYRQAPGQEWEVVAAIYRRGASTYYADSVKGRFTISRDNAKNTVYLEMNSLKPEDTAVDYCAAYLYGLWSVGRDYWGQGTQVTVSS | high polyreactivity
QVQLVESGGGLVQAGGSLRLSCAASGRIFDDNAMGWYRQAPGKERELVAAITGPDDSTDYADSVKGRFTISRDNAKNTVYLQMNSLKPEDTAVYYCAKDAGYWYYWNGYWGQGTQVTVSS | high polyreactivity
QVQLVESGGGLVQAGGSLRLSCAASGRTFRTNAMGWYRQAPGKERELVAAISTGGGIANYADSVKGRCTISRDNAKNTVYLQMNSLKPEDTAVYYCNADIYTWFQIGGYQYDYWGQGTQVTVSS | low polyreactivity
QVQLVESGGGLVQAGGSLRLSCAASGSIFNRYAMGWYRQAPGKERELVAVIRWRDGSTYYADSVKGRFTISRDNAKNTVYLQMNSLKPEDTAVYYCAAVYWGEEYEYWGQGTQVTVSS | low polyreactivity
QVQLVESGGGLVQAGGSLRLSCAASGRTFLLYAMGWYRQAPGKERELVAAIRSSTVSTYYADSVKGRFTISRDNAKNTVYLQMNSLKPEDTAVYYCAASRPKYGPSGVHYNYWGQGTQVTVSS | high polyreactivity
QVQLVESGGGLVQAGGSLRLSCAASGIILYYYAMGRYRPAPGKERELVASISRGDSTNYADSVKGRFTISRDNAKNTVYLQMNSLIPEDTAVYCNKDYLPSLYRGFDYWGQGTQVTVSS | low polyreactivity
QVQLVESGGGLVQAGGSLRLSCAASGSTFGQYAMGWYRQAPGKERELVAAISRNGGRTYYADSVKGRFTISRDNAKNTVYLLMNSLKPEDTAVYYCAAGGFLYVYYRGMYYWGQGTQVTVSS | high polyreactivity
QVQLVESGGGLVHAGGSLRLSCAPSGSNFCFNAMGWYRQAPGKERELVAAIPSRGGSTYYADSVKGRFTISRDNAKNTVYLQMNSLKPEDTAVYYCNADHRDTFIWVGLPHMDYWGQGTQVTVSS | low polyreactivity
QVHHVESGGGLVQAGGSLRLSCAASGRTFRYKAMGWYRQAPGKETELVARISRTGGRTYYADSVKGRFTISRDNAKTTVYLQMNSLKPEDTAVYYCNARKRYYSTRYNYWGQGTQVTVSS | high polyreactivity
QVQLVESGGGLVQAGGSLRLSCAASGFIFPYYAMGWYRQAPGKERELVAAITRSGGRTYYADSVKGRFTISRDNAKNTVYLQMNSLKPEDTAVYYCAVRYIRYRNLKYDFWGQGTHVTVSS | high polyreactivity
QVQLVESGGGLVQAGGSLRLSCAASGITFRYYAMGWYRQAPGKERELVATISWSGGSTYYADSVKGRFTISRDNAKNTVYLQMNSLKPEDTAVYYCNADWYRSAWSKYDYWGQGTQVTVSS | high polyreactivity
HVQLVESGGGLVQAGGSLRLRCAASGFTFYYNAMGWSRQAPGKERELVAAISTRGGNTYYADSVKGRFTISRDYAKNTVYLQRNSLKPEATAVYYCARIIRREGRYDYWGHGTQVTVSS | high polyreactivity
QVQLVESGGGLVQAGGSLRLSCAASGSTFGKNAMGWYRQAPGKERELVAAITRRGGSTNYADSVKGRFTISRDNAKNTVYLQINSLKPEDTAVYYCAASWGRTSSKPFDYWGQGTQVTVSS | high polyreactivity
QVQLVESGGVLGQAGVSLRLSCAASGRIFDGNTMGWYIQAPGQEREFVAAISGGGSTYYADSVKGRFTISRDNAKNTVYLQMNSLKPEDTAVYYCAATTGPVPLKGDYWGQGTQVTVSS | low polyreactivity
QVQLVESGGGLVQAGGSLRLICAASGSIFHIYMGWYRQAPGKEMEVVASISYRGGTTYYADSVKGRFTISRDNAKNSVYFQMNSLKPEDTAVYYCNVDRYFYHYGRYGHMDYWGQATQVTVSS | low polyreactivity
QVQLVESGGGLVQAGGSLRLSCAASGRTIRAYTMGWSRQAPGKERELVAAISTPGGSTYYADSVKGRFTISRDNAKNTVYLQMNSLKPEDTAVYYCAADYGGPITGYEYWGQGTQVTVSS | low polyreactivity
QVQLVESGGGLVQAGGSLRLSCAASGTFSQYAMGWYRQAPGKERQLVAAISQGGGSTYYADSVKGRFTISRDNAKNTVYLQMNSLKPEDTAVYYCARSRSYWGIVYGRYDYWGQGTQVTVSS | high polyreactivity

Sequence | polyreactivity (PSR sort gate)
QVQLVESGGGLVQAGGSLRLSCAASGSTFVYNAMGWYRQAPGKERELVAAITSRGGSTDYADSVKGRFTISRDNAKNTVYLQMNSLKPEYTSVYYCAADYSHTGSRYYQEGDYWGQGTQVTVSS | low polyreactivity
QVQLVGAGGGLVHAGGSLLLSCAASGFTLGSNAMGWYRQAPGKERALVAASSKSGGSTYYADSVKGRFTISRDNAKNTVYLQMTSLKPEDTAGYYCAARPIHYPPYYYWGQGTQVTVSS | high polyreactivity
QVQLVESGGGLVQPGGSLRLSCAASGFIFSYYAIGWYRQAPGKERELVAAISYRGGSTHYADSVKGRFTISRDNAKNTVYLQMNSLKPEDTAVYYCAADRVRRPSPVGMDYWGQGTQVTVSS | high polyreactivity
QGQLVESGGGLVQAGGSLRLSCAAAGYTLGVNAMGWSRQAPGKERELVAAINYIDTRTYYAASVKGRFTISRDNAKNTVYLQMNSLNPEDTAVYYCAARPYVPWVKRYYYWGQGTQVTVSS | low polyreactivity
QVQLVESGGGLVQAGGSLRLSCAASGRNFARYVMGWYSQAPGKERELVASISNSGGSTYYADSVKGRFTISRDNAKNTVYLQMNSLKPEDTAVYYCARRYYYYTSYRYDYWGQGTQVTVSS | high polyreactivity
QVQLVESGGGLVQAGGSLRLSCAASGFTFVYYAMGWYRQAPGKEREFAYYADSVKGRFTISRDNAKNTVYLQMNSLKPEDTAVYYCNAAEDEGDRPITQVGYDYWGQGTQVTVSS | low polyreactivity
QVQLVESGGGLVQAGGSLRLSCAASGRIFQTNVMGWYRQAPGKEKELVAAISYRGGTTYYEDSVKARFTISRDNAQNTVYLPMYSLYPEDTAVYYCAALHYRIRRTGMDYWGQGTQVTVSS | low polyreactivity
QVQLVESGGGLVQAGGSLRLSCAASGRTFWYNAMGWYRQAPGKERELVAAISSTGGRTYYADSVKGRFTISRDNAKNTVYLQMNSLKPEDTAVYYCAKYPSKSYVPGDYWGQGTQVTVSS | low polyreactivity
QVQLVESGGGLVQAGGSLRLSCAASGSTFYTYAMGWYRQAPGKERELVAAISNRGGSTRYADSVKGRFTISRDTAKNTVYLQMNSLKPEDTAVYYCAARVTQTGYYWGQGTQVTVSS | high polyreactivity
QVQLVESGGGLVQAGGSLRLSCAASGSTFPGNAMGWYRQAPGKERELVAAIDTSGGSTYYADSVKGRFTISRDNAKNTVYLQMNSLKAEDTAVYYCDADYLIEMDYWGQGTQVTVSS | low polyreactivity
QVQLEESGGGLVQAGGSLRLSCAASGSIFAVYAKGWYRQAPGKEREFVARISWGGGRTYYADSVKGRFTISRDNAKNTVYLQMNSLKPEDTAVYYCAATFRARPRENYWGQGTQVTVSS | high polyreactivity
QVHLVESGGGLVQAGGSLRLSCAASGRIFVFNAMGWYRQAPGKERELVAAINYRGGTYYADSVKGRFTISRDNAKNTVYLQMNSLKPEDTAVYYCNALRQKFQYHDNDYWGQGTQVTVSS | high polyreactivity
QVQLVESGGGLVQAGGSLRLSCAASGYTFYTNAMGWYIQAPGKERELVASIRSRGRSTYYADSVKGRFTISRDNAKNTVYLQMNSLKPEDTAVFYCAALPNIPAVYAYDYWGQGTQVTVSS | low polyreactivity
QVQLVESGGGLVQAGVSLRLSCAASGFTFAYYAMGWYRQAPGKERELVAAITSGGRTNYADSVKGRFTISRDNAKNTGYLQMISLKAEDTAVSYCAKYRRGGSRHYSVFNHDYWGLGTQVTVSS | high polyreactivity
QVQLVESGGGLVQAGGSLRLSCAASGLTFDSNVMGWYRQAPGKERELVAAITSSGRTYYADSVKGRFTISRDNEKNTVYLQMNSLKPEDTAVYYCAARNLAYTRKGYYYWGQGTQVTVSS | high polyreactivity
QVQLVESGAGLVQAGGSLRISCAASGRTFGLNDMAWYRPAPGKERELVAAITWSDDDTYYADSVKGRFTISRDNAKNTVYLQMNSLKPEDTAVYYCAKSRYDYTKTECGYWGQGTEVTVSS | low polyreactivity
QVQLVESGGGLVQAGGSLRLSCAASGSIFYWYTMGWYRQAPGKERELVAAISSIDGNTYYADSVKGRFTISRDNAKNTVYLQMNSLKPEDTAVYYCAAAYYNTDYYYWGQGTQVTVSS | low polyreactivity
QVQLVESGGGLVQAGGSLRLSCASSGFTFYSYAMGWYRQAPGKERELVAAISKRGGSTYYADSVKGRFTISRDNAKNTVYLQMNSLQPEDTAVYYCNADYPYYYGYDYWGQGTQVTVSS | high polyreactivity
QVQLVESGGGLVQAGGSLRLSCAASGIISRVYAMGWYRQAPGKERELVAAISGSGGTTYYADSVKGRFTISRDNAKNTVYLQMNSLKPEDTAVYYCAARYKALYDYWGQGTQVTVSS | high polyreactivity
QVQLVESGGGLVQAGGSLRLSCAASGRIFSLYTMGWYRQAPGKERELVATISIGGSTNYADSVKGRFTISRDNAKNTVYLQMNSLKPEDTAVYYCATDGSIGYNDRYTNDFDYWGQGTQVTVSS | low polyreactivity
QVQLVESGGGLVQAGGSLRLSCAASGRIFLPYAMGWYGQAPGKERELFASISGSGGRTYYADSVKGRFTISRDHANNTVYLQMISQKPEDTAVYYCANRPVYAGYRFNYWGQGTQLTVSS | high polyreactivity
